# Data published in patent US20180170984.
# Target: APOBEC3A wild-type (Homo sapiens) (UniProt P31941)
# Conditions: 5-nitroindole at positions 12-14; deamination activity
# Chain of APOBEC3A wild-type (Homo sapiens) (P31941 whole entry): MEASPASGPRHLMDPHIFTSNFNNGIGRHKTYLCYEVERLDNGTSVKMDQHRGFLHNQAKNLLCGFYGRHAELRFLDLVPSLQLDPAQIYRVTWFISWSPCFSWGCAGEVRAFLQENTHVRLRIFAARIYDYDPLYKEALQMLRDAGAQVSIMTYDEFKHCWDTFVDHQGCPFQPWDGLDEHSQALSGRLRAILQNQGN
sequence,measurement,value
AAAAAAAAATCNNNAAAAAAA [+1 to +3 5-nitroindole substrate],binding signal (fold lower than n3),2
